Test results from patent US20200199241A1 (Chugai, published 2020).
Read-outs that look alike come from different tables or passages of the source. Each block holds one binder with its values, some of them ahead of it.

Key:
human FcγRIIb [1] = molecular target: T1, human FcγRIIb (human, UniProt P31994 43-217, limits assumed); test: SPR (Biacore); ratio against IgG1
T1 construct: also called FcγIIB
T1 sequence: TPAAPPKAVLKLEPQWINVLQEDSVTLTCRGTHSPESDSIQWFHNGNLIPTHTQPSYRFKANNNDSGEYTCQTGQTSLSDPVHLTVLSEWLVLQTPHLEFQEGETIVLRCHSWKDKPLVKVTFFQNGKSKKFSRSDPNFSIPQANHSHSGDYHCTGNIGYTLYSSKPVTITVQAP
Method: (§1) Next, interaction between these antibodies and FcγR was analyzed kinetically using the BIACORE™ T100 (GE Healthcare). The interaction was measured at a temperature of 25° C. using HBS-EP+ (GE Healthcare) for the running buffer. The Series S Sensor Chip CMS (GE Healthcare) was used after immobilizing Protein A by amine coupling. […] Antibody captured on the chip was washed by allowing 10 mM glycine-HCl (pH 1.5) to react following measurement. The chip regenerated in this manner was used repeatedly. The dissociation constant KD (mol/L) was calculated from the association rate constant ka (L/mol/s) and dissociation rate constant kd (l/s) as calculated by global-fitting the measurement results with a 1:1 Langmuir binding model using the BIACORE™ Evaluation Software.

human FcγRIIb [2] = molecular target: T1, human FcγRIIb; test: SPR (Biacore), antibody captured, FcγR as analyte
Method: as §1

human FcγRIIb [3] = molecular target: T1, human FcγRIIb; test: SPR (Biacore); ratio against IgG1; remark: listed apart in the source
human FcγRIIb [4] = molecular target: T1, human FcγRIIb; test: SPR (Biacore), antibody captured, FcγR as analyte; remark: listed apart in the source
human FcγRIIb [5] = molecular target: T2, human FcγRIIb (human, UniProt P31994 43-217, limits assumed); test: SPR (Biacore), amount of FcγRIIb bound to the captured antibody, relative to GpH7-B3/GpL16-k0 = 100
T2 construct: also called hFcgRIIb; FcγIIB
T2 sequence: T1 sequence

B1: IgG1-v2 (antibody)
heavy: not shown
light: DIQMTQSPSSLSASVGDRVTITCRASQDISSYLNWYQQKPGKAPKLLIYYTSRLHSGVPSRFSGSGSGTDFTFTISSLQPEDIATYYCQQGNTLPYTFGQGTKVEIK
notes: IL6R-G1d with L328E (EU numbering); also called L328E
relative KD for FcγRIIb (KD for IgG1/KD for each variant) (human FcγRIIb [1]): 2.3 | Kd (human FcγRIIb [2]): 2300 nM

B2: IgG1-v3 (antibody)
heavy: not shown
light: B1 light
notes: IL6R-G1d with S267E/L328F (EU numbering); also called S267E/L328F
relative KD for FcγRIIb (KD for IgG1/KD for each variant) (human FcγRIIb [3]): 408 | Kd (human FcγRIIb [4]): 13 nM

B3: IgG1-v4 (antibody)
heavy: not shown
light: B1 light
notes: IL6R-G1d with P238D/L328E (EU numbering); also called IL6R-G1d-v4; P238D/L328E
relative KD for FcγRIIb (KD for IgG1/KD for each variant) (human FcγRIIb [1]): 0.47 | Kd (human FcγRIIb [2]): 11000 nM

B4: G237F (antibody)
heavy: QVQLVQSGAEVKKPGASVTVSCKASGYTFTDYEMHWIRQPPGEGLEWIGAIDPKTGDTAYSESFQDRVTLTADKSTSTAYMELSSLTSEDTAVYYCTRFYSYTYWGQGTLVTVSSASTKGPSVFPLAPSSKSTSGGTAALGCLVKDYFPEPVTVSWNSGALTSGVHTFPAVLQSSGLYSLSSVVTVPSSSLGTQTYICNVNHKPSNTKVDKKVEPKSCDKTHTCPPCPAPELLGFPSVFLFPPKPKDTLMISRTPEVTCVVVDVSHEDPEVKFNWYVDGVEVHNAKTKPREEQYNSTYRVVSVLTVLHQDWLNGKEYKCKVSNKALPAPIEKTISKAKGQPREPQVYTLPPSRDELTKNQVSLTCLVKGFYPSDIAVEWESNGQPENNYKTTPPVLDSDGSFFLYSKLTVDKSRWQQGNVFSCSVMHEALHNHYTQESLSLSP
light: DIVMTQSPLSLPVTPGEPASISCQASESLVHSNRNTYLHWYLQKPGQSPQLLIYKVSNRFSGVPDRFSGSGSGTDFTLKISRVEAEDVGVYYCSQNTHVPPTFGQGTKVEIERTVAAPSVFIFPPSDEQLKSGTASVVCLLNNFYPREAKVQWKVDNALQSGNSQESVTEQDSKDSTYSLSSTLTLSKADYEKHKVYACEVTHQGLSSPVTKSFNRGEC
notes: also called GpH7-B3 variant G237F/GpL16-k0; copies: 2 + 2
binding result (human FcγRIIb [5]): binds

B5: S239D (antibody)
heavy: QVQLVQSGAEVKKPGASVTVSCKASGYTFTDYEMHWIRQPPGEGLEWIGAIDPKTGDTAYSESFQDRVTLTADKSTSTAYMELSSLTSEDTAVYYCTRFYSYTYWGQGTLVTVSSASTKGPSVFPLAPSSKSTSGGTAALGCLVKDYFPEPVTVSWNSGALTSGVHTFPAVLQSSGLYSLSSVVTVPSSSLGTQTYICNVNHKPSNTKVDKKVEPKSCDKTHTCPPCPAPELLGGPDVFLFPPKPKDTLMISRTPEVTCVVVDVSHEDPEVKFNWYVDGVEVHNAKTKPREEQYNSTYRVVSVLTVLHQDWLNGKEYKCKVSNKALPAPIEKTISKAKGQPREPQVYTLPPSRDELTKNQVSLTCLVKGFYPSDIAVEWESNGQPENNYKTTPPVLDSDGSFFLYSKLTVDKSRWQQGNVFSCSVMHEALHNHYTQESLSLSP
light: B4 light
notes: also called GpH7-B3 variant S239D/GpL16-k0; copies: 2 + 2
binding result (human FcγRIIb [5]): binds

More lines, now with the values ahead:

binding result (human FcγRIIb [5]): binds
B6: G237W (antibody)
heavy: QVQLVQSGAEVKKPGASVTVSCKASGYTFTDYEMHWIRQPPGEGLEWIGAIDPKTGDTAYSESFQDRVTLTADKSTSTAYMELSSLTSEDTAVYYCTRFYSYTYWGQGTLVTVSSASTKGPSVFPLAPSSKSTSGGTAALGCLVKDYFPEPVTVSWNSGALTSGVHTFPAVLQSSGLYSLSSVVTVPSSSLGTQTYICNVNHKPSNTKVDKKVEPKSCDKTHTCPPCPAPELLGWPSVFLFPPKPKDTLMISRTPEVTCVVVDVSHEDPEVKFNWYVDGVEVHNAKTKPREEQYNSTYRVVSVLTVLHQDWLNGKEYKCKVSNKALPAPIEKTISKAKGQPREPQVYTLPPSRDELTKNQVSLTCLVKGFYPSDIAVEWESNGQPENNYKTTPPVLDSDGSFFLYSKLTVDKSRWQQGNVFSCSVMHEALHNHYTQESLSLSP
light: B4 light
notes: also called GpH7-B3 variant G237W/GpL16-k0; copies: 2 + 2

binding result (human FcγRIIb [5]): binds
B7: L234Y (antibody)
heavy: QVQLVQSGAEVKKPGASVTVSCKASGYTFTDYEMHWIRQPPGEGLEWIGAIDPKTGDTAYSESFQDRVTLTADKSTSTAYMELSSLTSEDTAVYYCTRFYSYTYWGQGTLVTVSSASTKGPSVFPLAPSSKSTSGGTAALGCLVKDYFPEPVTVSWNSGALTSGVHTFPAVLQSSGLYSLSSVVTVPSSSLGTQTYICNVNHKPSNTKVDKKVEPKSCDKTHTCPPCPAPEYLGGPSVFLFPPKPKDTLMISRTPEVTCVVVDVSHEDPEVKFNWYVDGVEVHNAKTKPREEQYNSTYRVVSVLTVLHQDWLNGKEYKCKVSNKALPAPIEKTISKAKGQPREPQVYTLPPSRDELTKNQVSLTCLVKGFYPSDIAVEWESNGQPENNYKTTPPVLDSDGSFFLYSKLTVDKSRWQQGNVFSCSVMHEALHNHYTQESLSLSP
light: B4 light
notes: also called GpH7-B3 variant L234Y/GpL16-k0; copies: 2 + 2
